The values that follow come from patent US20180030127A1 (APRILBIO, published 2018).

Assay [1] deals with T1, human serum albumin (human, UniProt P02768 25-609).
T1 construct: Bought protein; also called HSA; human SA
As to the kind of experiment: ELISA, purified soluble Fab, pH 7.4. The method, then: (§1) For the monoclonal phage ELISA, the recombinant phage was obtained from positive E. coli clones by phage rescue, and ˜10⁸ CFU/well were added to MaxiSorb ELISA plates (Nunc, Roskilde, Denmark) that were coated with 5 μg/ml HSA, RSA, MSA or BSA. The phage was allowed to bind to the antigens either at pH 6 or at pH 7.4 for 1 h at 37° C. A goat anti-human kappa L Ab-conjugated with HRPO (Sigma-Aldrich) was used as a secondary antibody. The binding signals were visualized with a TMB substrate (BD Science, San Jose, Calif., USA), and the absorbance at 450 nm was measured using an ELISA reader (Bio-Rad, Hercules, Calif., USA). The data represent the average of three experiments standard deviation. For the conventional ELISA, the various antigens [human SA, rat SA, mouse SA, monkey SA (Alpha diagnositic Intl., San Antonio, Tex., USA), canine SA (CUSABIO, Wuhan, Hubei, China). rabbit SA (Sigma-Aldrich), epidermal growth factor receptor (EGFR) (R&D systems, Minneapolis, Minn., USA), epithelial cell adhesion molecule (EpCAM) (R&D systems), IL-15 receptor a (IL-15Ra) (R&D systems), IL-10 (eBioscience, San Diego, Calif., USA), CD16a (R&D systems), c-MET (Sinobiological, Beijing, China)] at 5 μg/ml concentrations were immobilized on the microtiter plates, and the Fab molecules were allowed to bind to the antigens, and detected as above. […]
Background: In an ELISA, binding on a coated surface is turned into a signal by an enzyme label.

The target of assay [2] is T1, human serum albumin. As to the kind of experiment: biolayer interferometry (Octet RED), SL335 on AR2G biosensor, HSA in solution, pH 7.4. The method, then: (§2) Real-time binding assays between the purified SL335 and the antigens (human SA, rat SA or mouse SA) were performed using biolayer interferometry with an Octet RED system (ForteBio, Menlo park, Calif., USA) as previously described except that AR2G (Amine Reactive Second-Generation) sensors were used (Costin et al., (2013) J Virol. 87, 52-66). Briefly, the predetermined concentration of SL335 was coupled to kinetics grade AR2G biosensors, and unbound Fab fragments were removed from the surfaces of the sensors by incubating in the kinetics buffer […]. […] The binding and dissociation kinetics were calculated using the Octet QK software package, which fit the observed binding curves to a 1:1 binding model to calculate the association rate constants. The association and dissociation rate constants were calculated using at least three different concentrations of human SA, rat SA or mouse SA. The equilibrium dissociation constants were calculated as the kinetic dissociation rate constant divided by the kinetic association rate constant.
(§3) Since SL335 was the best binder among four anti-human SA Fab clones, its cross-reactivity was further analyzed by ELISA. […] The binding affinities of SL335 to human SA, rat SA and mouse SA at pH 6 or pH 7.4 were further measured via biolayer interferometry by passing through different concentration of the antigens on biosensors that were coated with SL335 (see Table 6 below).
For orientation: Biolayer interferometry detects binding as a change in optical thickness at a sensor tip.

Assay [3] has as its target T2, mouse serum albumin (mouse, UniProt P07724 25-608).
T2 construct: Bought protein; also called MSA; mouse SA
As to the kind of experiment: biolayer interferometry (Octet RED), SL335 on AR2G biosensor, MSA in solution, pH 6; the filing calls the data unreliable; pH 6; left out of Table 6 for lack of reliability. The method, then: as §2

Assay [4] deals with T3, rat serum albumin (rat, UniProt P02770 25-608).
T3 construct: Bought protein; also called RSA; rat SA
T3 sequence (P02770 25-608 limits assumed): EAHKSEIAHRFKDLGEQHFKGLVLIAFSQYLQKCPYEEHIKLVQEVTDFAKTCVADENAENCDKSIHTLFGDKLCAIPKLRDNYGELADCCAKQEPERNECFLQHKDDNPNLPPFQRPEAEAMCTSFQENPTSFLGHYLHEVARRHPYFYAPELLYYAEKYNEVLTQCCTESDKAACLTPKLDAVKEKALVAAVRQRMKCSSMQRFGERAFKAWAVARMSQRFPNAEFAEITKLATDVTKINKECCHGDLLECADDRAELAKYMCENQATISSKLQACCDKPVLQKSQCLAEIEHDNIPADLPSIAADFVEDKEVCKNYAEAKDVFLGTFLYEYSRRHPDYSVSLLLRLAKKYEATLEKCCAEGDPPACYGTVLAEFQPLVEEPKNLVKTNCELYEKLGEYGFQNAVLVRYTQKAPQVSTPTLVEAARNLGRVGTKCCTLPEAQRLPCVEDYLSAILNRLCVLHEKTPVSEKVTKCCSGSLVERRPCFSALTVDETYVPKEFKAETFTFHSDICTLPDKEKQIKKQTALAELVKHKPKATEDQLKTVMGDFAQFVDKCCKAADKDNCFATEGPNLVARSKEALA
The experiment in a line: biolayer interferometry (Octet RED), SL335 on AR2G biosensor, RSA in solution, pH 7.4. The method, then: as §2, §3

Assay [5] addresses T3, rat serum albumin. As to the kind of experiment: ELISA, purified soluble Fab on coated RSA, pH 7.4; rat SA, pH 7.4. The method, then: as §1
Assay [6] has as its target T3, rat serum albumin. As to the kind of experiment: ELISA, purified soluble Fab on coated RSA, pH 6; rat SA, pH 6. The method, then:
as §1

Assay [7] addresses T1, human serum albumin. The experiment in a line: biolayer interferometry (Octet RED), SL335 on AR2G biosensor, HSA in solution, pH 6.0. The method, then:
as §2, §3

The target of assay [8] is T2, mouse serum albumin. As to the kind of experiment: biolayer interferometry (Octet RED), SL335 on AR2G biosensor, MSA in solution, pH 7.4; the filing calls the data unreliable; pH 7.4; left out of Table 6 for lack of reliability. The method, then:
as §2
Since SL335 was the best binder among four anti-human SA Fab clones, its cross-reactivity was further analyzed by ELISA. […]

The target of assay [9] is T1, human serum albumin. The experiment in a line: ELISA, purified soluble Fab, pH 6. The method, then:
as §1

The target in assay [10] is T3, rat serum albumin. As to the kind of experiment: biolayer interferometry (Octet RED), SL335 on AR2G biosensor, RSA in solution, pH 6.0. The method, then:
as §2, §3

T2 sequence (P07724 25-608 limits assumed): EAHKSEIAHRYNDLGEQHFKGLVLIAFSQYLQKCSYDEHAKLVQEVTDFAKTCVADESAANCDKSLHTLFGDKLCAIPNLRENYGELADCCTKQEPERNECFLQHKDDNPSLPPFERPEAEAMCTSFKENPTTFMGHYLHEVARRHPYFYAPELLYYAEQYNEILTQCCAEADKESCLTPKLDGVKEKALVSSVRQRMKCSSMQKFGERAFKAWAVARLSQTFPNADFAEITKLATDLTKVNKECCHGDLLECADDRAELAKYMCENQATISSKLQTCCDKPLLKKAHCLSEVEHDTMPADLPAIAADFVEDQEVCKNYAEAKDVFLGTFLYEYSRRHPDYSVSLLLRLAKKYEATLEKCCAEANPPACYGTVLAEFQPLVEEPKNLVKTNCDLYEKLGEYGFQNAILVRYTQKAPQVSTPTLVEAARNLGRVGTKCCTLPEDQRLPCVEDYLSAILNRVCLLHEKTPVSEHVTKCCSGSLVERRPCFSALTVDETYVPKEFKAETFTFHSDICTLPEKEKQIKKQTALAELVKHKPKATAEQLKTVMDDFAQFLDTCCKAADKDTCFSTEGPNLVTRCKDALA

B1: SL335 (Fab, V domains shown)
VH: QVQLVQSGGGPVKPGGSLRLSCAASGFMFRAYSMNWVRQAPGKGLEWVSSISSSGRYIHYADSVKGRFTISRDNAKNSLYLQMNSLRAEDTAVYYCARETVMAGKALDYWGQGTLVTVSS
VL: ELVLTQSPGTLSLSPGETATLSCRASQSVGSNLAWYQQKPGQAPRLLIYGASTGATGVPARFSGSRSGTDFTLTITSLQPEDFATYYCQQYYSFLAKTFGQGTQLEIKR
notes: Human anti-serum albumin Fab in the classic form (VH+CH1 with Cys233, VL+CLk with Cys214); tested on phage and as soluble Fab purified from E. coli; also called SL335wt; SL335 Fab
Turning to B1, the “fold stronger binding than to rat SA at pH 7.4” value in [1] is 4 fold. Further, the Kd was 13 nM in assay [2]; approximately 10 µM in assay [3]; 65.3 nM in assay [4]; 8.68 nM in assay [7]; approximately 1600 nM in assay [8]; 122 nM in assay [10]. In addition, the koff in assay [2] is 0.00152 s⁻¹; in [4], 0.00282 s⁻¹; in assay [7], 0.00155 s⁻¹; in assay [10] it was 0.00576 s⁻¹. Besides, the kon stood at 117000 M⁻¹ s⁻¹ in assay [2], 43200 M⁻¹ s⁻¹ in [4], 179000 M⁻¹ s⁻¹ in [7] and 47100 M⁻¹ s⁻¹ in [10]. Moreover, the results for the EC50 in assay [5] and in assay [6] were 0.16 µg/mL and 0.4 µg/mL, respectively. In addition, the “fold stronger binding than to rat SA at pH 6” value in assay [9] stood at 20 fold.

As usually defined, the Kd is a measure of binding affinity in units of concentration. A higher Kd goes with a looser complex. As usually defined, the koff is the first-order rate constant of dissociation. Low readings indicate a long-lived complex, high ones a short-lived complex. The kon is the second-order rate constant of association. A lower kon goes with slow association. In general, EC50 refers to the concentration at which the effect is half-maximal. A lower EC50 goes with greater potency.
